T1: human P2X4 (human, UniProt Q99571 1-388)
T1 sequence (looked up): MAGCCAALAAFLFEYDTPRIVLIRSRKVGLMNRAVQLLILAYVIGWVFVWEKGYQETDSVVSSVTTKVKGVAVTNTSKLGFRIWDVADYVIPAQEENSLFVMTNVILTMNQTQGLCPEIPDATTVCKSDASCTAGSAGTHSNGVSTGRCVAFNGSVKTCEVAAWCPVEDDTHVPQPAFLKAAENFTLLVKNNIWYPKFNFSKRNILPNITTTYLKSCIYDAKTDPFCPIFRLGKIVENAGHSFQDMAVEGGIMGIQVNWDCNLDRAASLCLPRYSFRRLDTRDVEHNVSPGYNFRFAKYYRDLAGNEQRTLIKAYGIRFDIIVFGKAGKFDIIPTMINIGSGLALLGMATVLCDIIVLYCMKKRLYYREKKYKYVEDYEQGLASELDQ

B1: Antibody 3 (antibody, V domains shown)
VH: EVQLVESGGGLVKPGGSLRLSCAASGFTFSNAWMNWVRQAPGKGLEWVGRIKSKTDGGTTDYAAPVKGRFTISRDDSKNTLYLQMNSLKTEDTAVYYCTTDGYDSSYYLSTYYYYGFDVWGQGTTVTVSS
VL: SSELTQDPAASVALGQTVTITCQGDSLRSYYASWYQQKPGQAPVLVFYGKNIRPSGIPDRFSGSDSRDTASLTITGAQADDEADYYCNSRDTSGNVVFGGGTKVTVL
B2: Antibody 4 (antibody, V domains shown)
VH: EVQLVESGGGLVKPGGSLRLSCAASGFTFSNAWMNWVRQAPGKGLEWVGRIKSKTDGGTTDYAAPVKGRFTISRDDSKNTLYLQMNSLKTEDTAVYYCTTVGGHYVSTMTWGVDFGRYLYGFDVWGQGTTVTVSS
VL: QSVLTQPPSVSLSPGQTARITCSGDVLSKQFGYWYQQKPGQAPVVVIYNDSERPSGIPERFSGSSSGTTVTLTITGVQAEDEADYYCQSADSSGTVLFGGGTKLTVL
B3: Antibody 1 (antibody, V domains shown)
VH: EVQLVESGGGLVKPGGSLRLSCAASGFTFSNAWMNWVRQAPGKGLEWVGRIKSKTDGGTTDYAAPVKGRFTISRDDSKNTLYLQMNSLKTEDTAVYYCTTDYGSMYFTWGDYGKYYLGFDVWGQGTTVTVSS
VL: SYVLTQPPSVSVSPGQTATITCSGDTLPQRYAYWYQQKPGQAPILLIYKDSERPSGIPDRFSGSSSGTTVALTISGVQAEDEADYYCQSTDTSGVVFGGGTKVTVL

Key:
human P2X4 [1] = biological target: T1, human P2X4; experiment: cell-based or functional assay
human P2X4 [2] = biological target: T1, human P2X4; experiment: cell-based or functional assay; remark: listed apart in the source

| Binder | IC50 (nM), inhibition of human P2X4 currents in electrophysiology (human P2X4 [1]) [nM] | IC50, inhibition of human P2X4 currents in electrophysiology (human P2X4 [2]) [nM] |
| --- | --- | --- |
| B1 | 50 |  |
| B2 | 3.9 | 3.8 |
| B3 | 19.6 |  |

Reference: US10829540 (AstraZeneca / MedImmune, dated 2020)
